Ends that are not written are not given here. * marks the point of attachment. Biotin = O=C1N[C@H]2[C@H](CS[C@H]2CCCCC(=O)*)N1
T1: multisubunit FcεRI receptor complex on rat RBL-2H3 cells and rat peritoneal mast cells (rat, UniProt P12371 24-245; P13386 1-243; P20411 19-86)
T1 sequence (looked up) 1: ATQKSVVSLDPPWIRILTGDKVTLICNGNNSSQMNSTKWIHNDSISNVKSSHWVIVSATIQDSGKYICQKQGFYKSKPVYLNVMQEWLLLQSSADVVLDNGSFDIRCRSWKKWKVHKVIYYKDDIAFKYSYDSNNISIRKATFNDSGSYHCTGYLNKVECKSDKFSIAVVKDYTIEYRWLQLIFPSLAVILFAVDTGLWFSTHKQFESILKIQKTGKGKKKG
T1 sequence (looked up) 2: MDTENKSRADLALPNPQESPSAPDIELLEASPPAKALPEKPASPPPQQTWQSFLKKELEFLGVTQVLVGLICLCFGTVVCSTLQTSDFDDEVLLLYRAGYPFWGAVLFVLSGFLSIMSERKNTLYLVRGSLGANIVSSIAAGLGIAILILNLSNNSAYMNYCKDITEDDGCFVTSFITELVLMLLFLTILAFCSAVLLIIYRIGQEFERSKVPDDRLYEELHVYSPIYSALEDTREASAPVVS
T1 sequence (looked up) 3: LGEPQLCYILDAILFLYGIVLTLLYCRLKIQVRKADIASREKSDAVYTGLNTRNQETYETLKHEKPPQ

T2: β-chain of the high affinity IgE receptor (FcεRI) on mouse bone marrow derived mast cells (mouse, UniProt P20490 1-235)
T2 sequence (looked up): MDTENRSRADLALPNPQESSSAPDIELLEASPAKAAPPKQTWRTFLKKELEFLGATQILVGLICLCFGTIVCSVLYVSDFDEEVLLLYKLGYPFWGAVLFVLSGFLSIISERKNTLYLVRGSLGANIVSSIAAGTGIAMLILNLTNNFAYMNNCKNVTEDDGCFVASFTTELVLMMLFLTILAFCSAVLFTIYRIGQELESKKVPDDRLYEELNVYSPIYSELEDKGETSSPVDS

T3: C5a (UniProt P01031 678-751)
T3 construct: domain: C5a; Control analyte in SPR
T3 sequence (looked up): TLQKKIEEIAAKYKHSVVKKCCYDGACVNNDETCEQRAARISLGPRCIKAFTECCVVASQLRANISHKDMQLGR

B1: human complement component C3a (ligand)
chain: not shown
B2: biotinylated peptide of the 2nd extracellular loop of the human FcεRI β chain (peptide)
peptide: Biotin-KSLAYIHIHSCQKFFETKCFMAS
modifications: cysteine pairing not given here
notes: also called second extracellular loop of human FcεRI β-chain
B3: biotinylated peptide of the 1st extracellular loop of the human FcεRI β chain (peptide)
peptide: Biotin-SVLDISHIEGDIFSSFKAGY
notes: also called first extracellular loop of human FcεRI β-chain

Tests used:
[1] = molecular target: T1, multisubunit FcεRI receptor complex on …; assay: cell-based or functional assay
[2] = molecular target: T2, β-chain of the high affinity IgE …; assay: cell-based or functional assay
[3] = molecular target: B1; assay: SPR (BIACORE 2000), peptide on streptavidin chip, C3a as analyte
C5a = molecular target: T3, C5a; assay: SPR (BIACORE 2000), peptide on streptavidin chip, C5a as analyte
[4] = molecular target: B1; assay: SPR (BIACORE 2000), biotinylated peptide on streptavidin chip, C3a as analyte; Kd = koff/kon from kobs plots; first extracellular loop of the human protein

| Binder | Inhibitory effect (IC50, µM) on the IgE-mediated degranulation of RBL-2H3 [1] [µM] | Inhibitory effect (IC50, µM) on the IgE-mediated degranulation of BMMC [2] [µM] | binding result [3] | binding result (C5a) | Kd [4] [nM] |
| --- | --- | --- | --- | --- | --- |
| B1 | 2.4 | 0.2 |  |  |  |
| B2 |  |  | no binding | no binding |  |
| B3 |  |  |  | no binding | 250 |

Reference: US20090075898A1 (YEDA RESEARCH AND DEVELOPMENT CO LTD AT THE WEIZMANN …, published 2009)
